Values quoted from earlier work in PMC3134397.

Assays:
[1] = target: UL18 (Human betaherpesvirus 5) (UniProt P08560); experiment: SPR
RAE-1γ (Mus musculus) = RAE-1γ (Mus musculus) (UniProt O08604); experiment: AUC
RAE-1δ (Mus musculus) = RAE-1δ (Mus musculus) (UniProt Q9JI58); experiment: AUC
RAE-1β (Mus musculus) = RAE-1β (Mus musculus) (UniProt O08603); experiment: AUC
UniProt O08603, sequence (O08603 29-229): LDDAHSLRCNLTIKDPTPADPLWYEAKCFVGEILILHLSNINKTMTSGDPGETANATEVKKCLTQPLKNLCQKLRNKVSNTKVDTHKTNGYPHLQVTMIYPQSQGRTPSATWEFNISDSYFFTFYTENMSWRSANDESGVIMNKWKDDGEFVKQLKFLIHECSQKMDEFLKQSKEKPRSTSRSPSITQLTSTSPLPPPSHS

UniProt Q9JI58, sequence (Q9JI58 29-225, stated change not applied): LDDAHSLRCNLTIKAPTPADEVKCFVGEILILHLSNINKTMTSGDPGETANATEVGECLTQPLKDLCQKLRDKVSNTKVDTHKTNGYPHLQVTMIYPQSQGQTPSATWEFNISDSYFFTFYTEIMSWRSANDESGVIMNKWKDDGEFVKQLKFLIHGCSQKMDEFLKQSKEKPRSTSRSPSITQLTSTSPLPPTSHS
UniProt O08604, sequence (O08604 29-227): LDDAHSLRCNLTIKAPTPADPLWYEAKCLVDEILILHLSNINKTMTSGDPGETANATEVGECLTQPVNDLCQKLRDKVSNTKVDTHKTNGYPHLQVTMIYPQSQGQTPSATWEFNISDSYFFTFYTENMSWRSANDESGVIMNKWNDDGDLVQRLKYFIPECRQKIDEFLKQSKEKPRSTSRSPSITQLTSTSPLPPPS

Substance | Kd [1] [nM] | Kd (RAE-1γ (Mus musculus)) [nM] | Kd (RAE-1δ (Mus musculus)) [nM] | Kd (RAE-1β (Mus musculus)) [nM]
LIR1 (from UniProt Q8NHL6) | 10 | – | – | –
m152 (from UniProt Q83156) | – | 1000 | 30000 | 3000
